The text below walks through data of article PMC8956657 (Nature Communications, 2022).

Assay in all cases: fluorescence polarisation
Settings in all cases: both partners purified
(In general: Fluorescence polarisation rises when a labelled molecule tumbles more slowly, as on binding a larger partner.)

In assay [1] the target is IMPα1 lacking the IBB domain (residues 70-529) (UniProt P52292 70-529).
In assay [2] the target is T1, IMPα3 lacking the IBB domain (residues 64-521) (UniProt O00629 64-521).
T1 construct: also called ΔIBB-IMPα3; KPNA4
T1 sequence (looked up): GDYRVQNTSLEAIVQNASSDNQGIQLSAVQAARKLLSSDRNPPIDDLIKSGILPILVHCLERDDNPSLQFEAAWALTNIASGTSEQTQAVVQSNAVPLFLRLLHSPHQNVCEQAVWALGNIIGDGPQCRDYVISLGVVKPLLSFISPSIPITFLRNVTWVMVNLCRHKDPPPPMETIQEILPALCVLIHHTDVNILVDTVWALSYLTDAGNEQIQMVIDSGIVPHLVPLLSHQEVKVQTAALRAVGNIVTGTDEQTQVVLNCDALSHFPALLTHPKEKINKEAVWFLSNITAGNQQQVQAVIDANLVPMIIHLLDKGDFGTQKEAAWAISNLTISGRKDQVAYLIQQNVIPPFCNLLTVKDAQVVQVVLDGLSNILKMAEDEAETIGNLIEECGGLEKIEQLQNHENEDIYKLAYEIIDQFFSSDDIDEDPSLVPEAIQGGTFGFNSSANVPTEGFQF

In assay [3] the target is T2, IMPα5 lacking the IBB domain (residues 73-538) (UniProt P52294 73-538).
T2 construct: also called ΔIBB-IMPα5; importin alpha 5
T2 sequence (P52294 73-538): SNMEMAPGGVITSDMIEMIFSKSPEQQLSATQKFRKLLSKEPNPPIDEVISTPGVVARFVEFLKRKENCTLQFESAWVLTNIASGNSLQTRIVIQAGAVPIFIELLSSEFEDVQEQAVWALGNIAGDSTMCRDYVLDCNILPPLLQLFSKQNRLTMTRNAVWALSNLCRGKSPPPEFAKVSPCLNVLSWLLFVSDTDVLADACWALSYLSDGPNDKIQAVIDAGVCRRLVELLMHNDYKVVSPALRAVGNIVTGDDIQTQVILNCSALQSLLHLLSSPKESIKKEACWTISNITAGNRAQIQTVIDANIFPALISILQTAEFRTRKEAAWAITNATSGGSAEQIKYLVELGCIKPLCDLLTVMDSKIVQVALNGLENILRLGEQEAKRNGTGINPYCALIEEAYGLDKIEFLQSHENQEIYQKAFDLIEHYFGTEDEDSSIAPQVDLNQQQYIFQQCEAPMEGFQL

Assay [4] concerns the target T3, IMPα7 lacking the IBB domain (residues 73-536) (UniProt O60684 73-536).
T3 construct: also called ΔIBB-IMPα7; importin alpha 7

Where no end group is shown, it is not given here.

T3 sequence (O60684 73-536): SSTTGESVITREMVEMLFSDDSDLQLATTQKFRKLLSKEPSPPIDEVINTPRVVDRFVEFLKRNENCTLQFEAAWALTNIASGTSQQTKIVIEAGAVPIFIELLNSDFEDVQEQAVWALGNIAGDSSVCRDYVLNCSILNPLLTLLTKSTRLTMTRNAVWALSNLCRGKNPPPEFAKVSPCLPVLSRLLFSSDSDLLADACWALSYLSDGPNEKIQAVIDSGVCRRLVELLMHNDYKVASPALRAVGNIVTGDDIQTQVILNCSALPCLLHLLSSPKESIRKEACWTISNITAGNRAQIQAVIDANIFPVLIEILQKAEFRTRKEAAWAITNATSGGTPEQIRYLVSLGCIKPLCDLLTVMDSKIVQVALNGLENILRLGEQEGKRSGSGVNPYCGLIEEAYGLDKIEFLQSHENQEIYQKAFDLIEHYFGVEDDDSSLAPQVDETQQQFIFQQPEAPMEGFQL

B1: FITC-tagged MERS-CoV ORF4b NLS peptide (residues 19-39), wild type (peptide)
peptide: RKARKRSHSPTKKLRYVKRRF
modifications: also: FITC-tagged
On to B1, for which the Kd (as a rule, the constant that tells how readily two partners part at equilibrium) in assay [1] is 2.5 nM; in assay [2], 1.4 nM; in assay [4] it was 1.9 nM. Besides, the binding result in assay [3] was “binds”.
